The record followed here is a protein production outcome set (Wang et al. 2014).

This series is described as follows: label from the status in PepcDB records.
As for “MADGVLAVSQEGFNTLQSYNVGEKYTADLWIQQGGLKSTASVVSFSVDKALLDSMNIADGTSYELLPADCYQLTKSSVDIPANERLLKGELTYDPAKIQELSGYDHLKYVLPLRATSSGMPFVSGRSVLLLGFKVSEPIVTIMNAGVEEINLAEVKELPVQIGVPFTNKWEISCRLESRQSVIDAYNTAHGTYFSMLPSDAYVTPETPILHSGVNQVTATYKLKDDILPGNYMLPVQIAEVTSDATIRADKDVYAAYSIIKEGDKLSKTDWKIVSFTTEEASGEGSNNGHAKHLIDGNIETFWHSRWQGGSDPLPYEIIIDMNHRVKIAQIELLPRGRGSNNPIKVVRFEASEDGTNWESIGQFGFTNQDAALKYYVKSSTARYIKLVIPDGVGNGTVAAIRELDVRGTVVNLEHHHHHH”, the protein production result is “not failed”.

“MIRLGLTSFSEHDYLTGKKRSTLYEYASHLPLVEMDTAYYGIPPKERVAEWVKAVPENFRFVMKVYSGISCQGEWQTYYASEEEMITAFLESMAPLIESKKLFAFLVQFSGTFGCTKENVAYLQKIRHWFKDLPIAIELRNNSWYQPNFVKQMLQFMKENQFSLVIVDEPQIPTNPVPFYPYVTNPNLVLFRFHGRNAAGWLANDAEWRKKRTLYHYNTQEIADLSEAVLKMSQEAKEVGVIFNNNSGGDAAENALQMQKVLNLSYDDLNPKQLDLF”: the protein production result is “not failed”.

Regarding “MSKSTAEIRQAFLDFFHSKGHQVVASSSLVPNNDPTLLFTNAGMNQFKDVFLGLDKRNYSRATTSQRCVRAGGKHNDLENVGYTARHHTFFEMLGNFSFGDYFKHDAIQFAWELLTGENWFALPKERLWVTVYETDDEAYEIWEKEVGIPRERIIRIGDNKGAPYASDNFWQMGDTGPCGPCTEIFYDHGDHIWGGPPGSPEEDGDRYIEIWNIVFMQFNRQADGTMEPLPKPSVDTGMGLERIAAVLQHVNSNYDIDLFRTLIEAVAKVTGATDLGNKSLRVIADHIRSCAFLVADGVLPSNENRGYVLRRIIRRAVRHGNMLGAKETFFYKLVGPLIEVMGSAGEELKRQQAQVEQVLKTEEEQFARTLERGLALLDEELAKLQGDTLDGETAFRLYDTYGFPVDLTADVCRERNIKVDEAGFEAAMEEQRRRAREASGFGADYNAMIRVDSASEFKGYDHLELNGKVTALFVDGKAVEAINAGQEAVVVLDQTPFYAESGGQVGDKGELKGAGFTFAVDDTQKYGQAIGHLGKLSAGALKVGDAVQADVDEARRARIRLNHSATHLMHAALRQVLGTHVAQKGSLVSDKVLRFDFSHNEAMKPSEIREVEDLVNAQIRRNLPIETNIMDLDAAKAKGAMALFGEKYDERVRVLSMGDFSTELCGGTHASRTGDIGLFRIISESGTAAGIRRIEAVTGEGAMATVHAQSDRLNDIAHLLKGDSQNLGDKVRAVLERTRQLEKELQQLKDQAAAQESANLSSKAVDLNGVKLLVSELAGIEPKMLRTMVDDLKNQLGSTVIVLATVVEGKVSLIAGVSKDVTDRVKAGELIGMVAQQVGGKGGGRPDMAQAGGTDAAALPAALASVQGWVSAKLQ”, the protein production entry is recorded as “failed”.

For the sequence “MDGRRMVQGLLTASLLTSIGGDLEVLASRMDLQFQRPVYTGETLVCELTVVSADPHTDGGVALVGDVAVRRVNRDDNSGQADTAAPLEHHHHHH”, the protein production entry is recorded as “failed”.

With “MALQLATLCFVSFSALFFVVDPFSAVPFFLALTRNDDPRRRREIALRASVTAFAVLAAFALTGEWIFRLLGIGLPAFKVAGGVVLLLLALDMVRTQPSRTRITQGEVDASADKEDVAIVPLAMPLLAGPGSIATAIVLMVRARGEDWWHPLPVLLAIALTCLASYLILAGAARTEKVLGRTGLAILERVAGLLLVAIAVQFMMDGLAEGLPRAFPLR”, the protein production entry is reported as “failed”.

“MDLRVLLSGLAYSTIFGLSFLFTKNALDYVTPLTFLSFRFIVAFLSYLLLLITGAVKLGKKPYWKLWKLVLFQPVLYFLFETYGLQRVNSSEAGMIIALIPIVVNLLAPFILKEKGDLLHYLLVGMGFLGVSLIVGFNITPGNIVGKVFMLLAVLSGAMYSVFSRKFSKEFTPTEITFFMMMTGAVFFTLLSLSTGDFRPVFNVDVVIGALYLGVLSSTVAFFLLNYAIRKLSPIFTTLFSNFTTVVSVIAGVVFRNETVGIQQIAGMGLIISSLIIMSLRRSYKRLSRAQKL”: the protein production result is “failed”.

Regarding “MGWHCVFFQMDLRYCSVQTLARTHQVMRELVQASAFVELNRFFDRLEAQWRQAPPGEFPAYLAAIDGHMLLDQENQGDRALSQVLRAWIDACPRAYHPQVVMGMHCFHRACQVQVDGPRNAARLLAVAQICESATAHLLRAMDRSAHPVAAAIGMLRISAQFHEPGWLLQLFQGEPARFRPSAHADVEVQEAAAPLLVRHGLLPLAELPQSLPRYLGKRVDHENEDPRYYWLRHALIARPGCFEAIQALAVYLLPRWGGSLDAFELLVNGPLCATWDERLRNALRWMAVEGRLKLPQADKVQAVADWQHVFEDWSQRPLRPRERAVVLAWRGALRSRVSGDHAGAMRDFGASLACNADLGAIRAMGVPFRCLAELILRDGMADEKQLLHGAIERLCDGRSHAAACALRAVGHRFGLWALPRSAEQARLWLQRAVSRQCAGQAPGFEVLEVARLLWAANRHEVACYLYERCAELNLPGAALALYELHHGGLANTPAHYLDDEAAGYWLQRAVEAGSRQAKYNLACLRMDGDEDLNERSAMLAVRRLLVDALGNGQTNACARLHLGILLRRFGEAQERSEAVAYLLSLVEHPDPWLAGRASAELGLAWMQGRGTRKQSRFAAIQWVNRAASLQPRDSAIGDIQAQILNSHSRVKTLFTQCGAALFRGTLHASELPPKQAFTHAESLRVKPASDGLRRAHKPRLSGPMQG”, the protein production result is reported as “failed”.

Turning to “MSLKVPGALPLLFLAACSHLPAKTPLTAEKPAEKKESEQSRVPSQDLTPSMLFDFLLAETALQRGDTEIGLRTYLKLAKNTQDPRVAQRATEAALQARQPAFALEAAKIWTELDPESIPARQMMAALLVHFDRLDEARPHLEKLLAVAGDKIDDAFMQLNSLLVRSPNKNAIFELVKQLAQPYPDLPEAHFAESQAAWFAERFDIALEEMKKALALRPEWEMAAIYEGRILSRESNARAIEFFDDYLKRYPKANDTRITYARLLLAERDYSKAREQFQKLLTENPDNPDVAIAVGLLSLELQNYDVAESNFKRALELGYRDPGMVRFYLGGISEKKQQIPQALNWYRSVTEGTQFIPAQIKYAILLSRTGKTKEGLHHLQQLPVANDQQRAQVIIAEAQLLRESGAYKKAFQLLSSSLEKLPDSPELLYDRALAAEKIGKADIMEQDLRKLIELRPDHAHAYNALGYGIAEHSSKRLPEALELIEKAIKLSPIDPYIIDSLGWVHYRMGDINQGLSYLRQAFAMNPDPEIAAHLGEVLWVQGMKDEAKEIWQTALKNHPGNEALIGVMKKFMK”, the protein production entry is “failed”.

Consider “MSRRSNRTINLPAPYLKRIWLDPSQVHDREAYPFCLPIFPDDFELSFDAAITIIVGENGTGKSTILEGIAALAGYDDAGGGKGYMPVDHSDAREKMGGQLSKALRASWLPKITNGWFFRAESFFSVARYLDKAARDAGQVGPDFLSHSHGEGFLRFFEERCQRQGIFIFDEPESALSPARQIEFLKLLRRMDDSRICQVIMATHSPMLMAYPNAKLLRLGKYGLEPVTVEETDHYRLMREFCDDPRGFVEATLAELEHHHHHH”, for which the protein production entry was “not failed”.

In the case of “MAQVPAGKNRSGQLSKQTGDAWENQARRWLEGQGLRFIAANARERGGEIDLIMRDGTVTVFIEVRYRRSARYGDAAASVTPQKQQRLLKAARLWLCRQ”, the protein production result is “failed”.

On to “MRVDELRVDERIKSTLKERGIESFYPPQAEALKSGILEGKNALISIPTASGKTLIAEIAMVHRILTQGGKAVYIVPLKALAEEKFQEFQDWEKIGLRVAMATGDYDSKDEWLGKYDIIIATAEKFDSLLRHGSSWIKDVKILVADEIHLIGSRDRGATLEVILAHMLGKAQIIGLSATIGNPEELAEWLNAELIVSDWRPVKLRRGVFYQGFVTWEDGSIDRFSSWEELVYDAIRKKKGALIFVNMRRKAERVALELSKKVKSLLTKPEIRALNELADSLEENPTNEKLAKAIRGGVAFHHAGLGRDERVLVEENFRKGIIKAVVATPTLSAGINTPAFRVIIRDIWRYSDFGMERIPIIEVHQMLGRAGRPKYDEVGEGIIVSTSDDPREVMNHYIFGKPEKLFSQLSNESNLRSQVLALIATFGYSTVEEILKFISNTFYAYQRKDTYSLEEKIRNILYFLLENEFIEISLEDKIRPLSLGIRTAKLYIDPYTAKMFKDKMEEVVKDPNPIGIFHLISLTPDITPFNYSKREFERLEEEYYEFKDRLYFDDPYISGYDPYLERKFFRAFKTALVLLAWINEVPEGEIVEKYSVEPGDIYRIVETAEWLVYSLKEIAKVLGAYEIVDYLETLRVRVKYGIREELIPLMQLPLVGRRRARALYNSGFRSIEDISQARPEELLKIEGIGVKTVEAIFKFLGKNVKISEKPRKSTLDYFLKS”, for which the protein production result was “failed”.
